Test: yeast display, Sf9 membrane polyspecificity reagent, FACS + sequencing; frameworks hold sequencing errors
How it was run: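 Genes from sorted yeast were amplified by colony PCR, read by MiSeq 2 × 250 sequencing and filtered on CDR length. These cells carried a synthetic nanobody library in Saccharomyces cerevisiae BJ5465 and were sorted by FACS into low and high (top ~1%) gates on anti-HA and streptavidin fluorescence. Polyreactivity is labelled according to the gate of origin.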

Row | Sequence | polyreactivity (PSR sort gate)
1 | QVQLVESGGGLVQAGGSLRLSCAAYGIIFAYNAMGWYRQAPGKERELVATITDSGGSTSYADSEKGRFTISRDNAKNTVYLQMNSLKPEDTAVYYCAVLPVYWYWRNYVYLSGYDYWGQGTQVTVSS | low polyreactivity
2 | QVQLVESGGGLVQAGGSLRLSCAAYGIIFRLKARGSNRQSPGKERELVAAITRRGGTTYYADSVKGRFTISRDNAKYTVYLQMNSLKPEDTAVFFCNTYYYWQYDWGQGTQVSVSS | high polyreactivity
3 | QVQLVESGGGLVQAGGSLRLSCAAYGITFPSYTMGWYRQAPGKERELVATIRNGGSTYYADSVKGRFTISRDNAKNTVYLQMNSLKPEDTAVYYCAAKDTGYGYGVPRLDYWGQGTQVTVSS | low polyreactivity
4 | QVQLVESGGGLVQAGGSLRLSCAAYGITFPVNAMGWYRQAPGKERELVAGIYFSGDSTYYADSVKGRFTISRDNAKNTVYLQMKSLKPEDTAVYYCAAEVWAFVYYFEYSTMYYWGHGTQVTVSS | low polyreactivity
5 | QVQLVESGGGLVQAGGSLRLSCAAYGITFVPNAMGWYRQAPGKERELVAAITSGDSTNYADSVKGRFTISRDNAKNTVYLQMNSLKPDDTAVYYCAADSWAQRPNQGRVSLHYYWGQCTQVTVSS | low polyreactivity
6 | QVQLVESGGGLVQAGGSLRLSCAAYGITFYWYAMGRYRQAPGKEWELVAGISQSGSRTYYADSVKGRFTISRDNAKNTVYLQMNSLKPEDTAVYYCAARVRWSPTRTFEYWGQGTQVTVSS | high polyreactivity
7 | QVQLVESGGGLVQAGGSLRLSCAAYGLIFTHNTMGWYRQAPGKERELVAAITTSGGTTYYADSVKGRFTISRDNAKNTVYLQMNSLKPEDTAVYYCNALYLSTRSGDYWGQGTQVTVSS | high polyreactivity
8 | QVQLVESGGGLVQAGGSLRLSCAAYGLTFCLNAMGWYRQAPGKERYLVAAIRYSGGGTYADSVKGRFTISRDNAMNTVYLQMISLKPEDTAVYYCAALYYLGYPQFDYWGQGTQVTVSS | low polyreactivity
9 | QVQLVESGGGLVQAGGSLRLSCAAYGLTFDSYAMGWYRQAPGKERELVAAISYGGGSTNFADSVKGRFTISRDNAKNTVYLQLNSLKPVDTAVYYCGAEPGYYDEYGYWGQGTQVTVSS | low polyreactivity
10 | QVQLVESGGGLVQAGGSLRLSCAAYGRIFDNNAMGWYRQAPGKERELVAAIDWRGGSTDYADSVKGRFTISRDNAKNTVYLQMNSLKPEDTAVYYCVAGHVPYWHGNSYDYWGQGTQVTVSS | low polyreactivity
11 | QVQLVESGGGLVQAGGSLRLSCAAYGRIFYYNAMGWFRQAPGKERELVASIDNGGSTNYADSVKGRFTISRDNAKNTVYLQMNSLKPEDTAVYYCNVDLYYEVSHVFLYEYDYWGQGTQVTVSS | low polyreactivity
12 | QVQLVESGGGLVQAGGSLRLSCAAYGRILYYYAMGWYRQAPGKETELVAAITETSGSTYYADSVKGRFTISRDNAKTTVYLQMNSLHPEDTAVYYCAASSTRGHYTAYDYWGQGTHVTVSS | low polyreactivity
13 | QVQLVESGGGLVQAGGSLRLSCAAYGRTFLFYAMGWYIQAPGKERELVAAITRSDGSTYYADSVKGRFTISRDNAKNTVYLQMNSLKPEDTAVYYCAAEYVSILRDYDYWGQGTQVTVSS | low polyreactivity
14 | QVQLVESGGGLVQAGGSLRLSCAAYGSIFEGNPMGWYRQAPGKERELVASISGDGSTNYADSVKGRFTISRDNAKNTVYLQMNSLKPEDTAVYYCNADTISEPGFHMDYWGQGTQVTVSS | low polyreactivity
15 | QVQLVESGGGLVQAGGSLRLSCAAYGSIFIYAMGGYRQAPGKVRELVAAISSSGGSTYYADSVKGRFTISRDNAKNTVYLQMNSLKPEDTAVYYCAARYTYSGDKGYYWGQGTQVTVSS | high polyreactivity
16 | QVQLVESGGGLVQAGGSLRLSCAAYGSIFKWYTMGWYRQAPGKERELVADINWNGGRTYYADSVKGRFTISRDYAKNTVYLQMNSLKPEDTAVFDCAASRGDYWGQGTQVTVSS | high polyreactivity
17 | QVQLVESGGGLVQAGGSLRLSCAAYGSNFYLYAMGWYRQAPGKERELVAAITRGGTTNYADSVKGRFTISRDNAKNTVYLQMNSLKPEDTAVYYCAKEVTTLLSLYEIVDRDYWGQGTQVTVSS | low polyreactivity
18 | QVQLVESGGGLVQAGGSLRLSCAAYGSTFCVYAMGWYRQAQGKERELVAAINFSGRTYYADSVKVRFSISRDNAKNTVYVQMNSLKPEDTAVYYCAARIIFEDVGTKYYYWGQGTHVTVSS | high polyreactivity
19 | QVQLVESGGGLVQAGGSLRLSCAAYGSTFQPYAMGWYRPATGKEREFVATISGSAGSTYYADSVKGRFKISRDNAKNTVYLQMNSLKPEDTAVDYCNADSGWFGYDYWGQGTQVTVSS | low polyreactivity
20 | QVQLVESGGGLVQAGGSLRLSCAAYGSTFRYYAMGWYRQAPGKERELVAAITSSGGSTYYADSVKGRFTISRDNAKNTVFLQMNSLKPEDTAVYYCAVAVKNWVKLNYWGQGSQVTVSS | high polyreactivity
21 | QVQLVESGGGLVQAGGSLRLSCAAYGSTFRYYTMGWYRQAPGKERELVAAISGSGGITYYADSLKGRFTISRDNAKNTVYLQMNSLKPEDTAVYYCAAESRYYPYWGQSVQYDYWGQGTQVTVSS | high polyreactivity
22 | QVQLVESGGGLVQAGGSLRLSCAAYGSTFSTYAMGWYRQAPGKEREMVAAITLSSGRTTYADSVKGRFTISRDNAKNTVYLQMNSLKPEDTAVYYCNAYYGAAFTYWDYYWGQGTQVTVSS | low polyreactivity

Row | Sequence | polyreactivity (PSR sort gate)
23 | QVQLVESGGGLVQAGGSLRLSCAAYGSTFVLYGMGWYRQAPGKEWELVAAISTSGGRTYYADSEKGRFTISRDNAKNSVSLQMNSLKPEDTAVYYCAALTYVAHYDEYWGQGTQVTVSS | low polyreactivity
24 | QVQLVESGGGLVQAGGSLRLSCAAYGSTFWPYAKGWSRQAPGKERELVAAISSSGGSTYYADSVKGRFTISRDNAKHTVYLQMNSLIPEDTAVYYCNIDYHRPYGGGSKGDFWGQGTQVTVSS | low polyreactivity
25 | QVQLVESGGGLVQAGGSLRLSCAAYGSTYGTNALGWYRQAPGKERELVAAITSRVGRTYYADSVKGRFTISRDNAKNTVYLQMNSLKPEDTAVYYCAASRLVRYQSRYGSWGQGTQVTVSS | high polyreactivity
26 | QVQLVESGGGLVQAGGSLRLSCAAYGTIFFSYSMGWYRQAPGKERELVADIRSSDDDTYYADSVKGRFTISRDNAKNTGYLQMNSMKPEDTAVYYCNADFGYWWDGRRYDYWGQGTQVTVSS | low polyreactivity
27 | QVQLVESGGGLVQAGGSLRLSCAAYGYTFDSYTIGWYRQAPGKERELVAAITRSGSSTYYADSVKGRFTISRDNAKNTVYLQMNSLKPDDTAVYSCAAGWRRADGIEYWYGYWGQGTQVTVSS | high polyreactivity
28 | QVQLVESGGGLVQAGGSLRLSCADSARIFSFNTMGWYRQAPGKETELVAAISYRGRTYYADSVKGRFTISRDNAKKTVYLQMNSLKPEDTAVYYCIAVYGYWYGSWGQGTQVTVSS | high polyreactivity
29 | QVQLVESGGGLVQAGGSLRLSCADSGFIFATNAMGWYRQAPGKERDFVAAITSGGSTYYADSVKGRFTISRDNAKNTVYLQMNSLKPEDTAVYYCNARTYSRVTRQTYRYRPYDYWGQGTQVSVSS | high polyreactivity
30 | QVQLVESGGGLVQAGGSLRLSCADSGFIFGYYAKGWYRQAPGKERELVADISRGGNTNYADSVKGRFTISRDNAKNTVYLQMNSLKPEDTAVYYCARYRRGKMDYCGQGTQVTVSS | high polyreactivity
31 | QVQLVESGGGLVQAGGSLRLSCADSGFIFTAYAMGWYRQAPGKERELVAAISRSGGRTYYADSVKGRFTISRDNAKNTVYLQMNSLKPEDTAVYYCNADFHSGGGYWGQGTQVTLSS | high polyreactivity
32 | QVQLVESGGGLVQAGGSLRLSCADSGFIFTVNAMGWYRQAPGKERELVAAITSGGNTYYADSVKGRFTISRDNAKNTVYLQMNSLKPEDAAVYYCNAVFYTWSPYGTTVRSYGYWGQGTQVTVSS | high polyreactivity
33 | QVQLVESGGGLVQAGGSLRLSCADSGFSIWWYDMGWYRQAPGKERELVAAITADGGDTYYADSVKGRFTISRDYANHTDYLQMNSLKPEDTAVYYCAAEYDVYGYYYWGQGTQVTVSS | high polyreactivity
34 | QVQLVESGGGLVQAGGSLRLSCADSGFTFLSNVMGWYRQAPGKERELDAAINYSGDGTYYADSVKGRFTISRDNAKNTVYLQMNSLKPEDSAVYYCAADVEYYRDVPPQVYVSDDYWGQGTQVTVSS | low polyreactivity
35 | QVQLVESGGGLVQAGGSLRLSCADSGFTFSWYTMGWYRQAPGKERELVASITVSGGSTYYADSVKGRFTISRDNAKNTVYLQMNSLKPEDTAVYYCNAQDPFTYYSSSPTYDYWGQGTQVTVSS | low polyreactivity
36 | QVQLVESGGGLVQAGGSLRLSCADSGFTFTYYDMGWYRQAPGKERELVAAISSGGSTNYADSVKGRFTISRDNAKNTVYLQMNSLKPEDTAVYYCAASITHYWYGYWGQGTQVTVSS | high polyreactivity
37 | QVQLVESGGGLVQAGGSLRLSCADSGGIFDWNDMGWYRHEPGKESELVAAITSGGVTYYADSVKGRFTISRDNAKNTVYLQMNSLIPDDTSVFYCATGYWGLWYGYDSWGQGTQVTVSS | low polyreactivity
38 | QVQLVESGGGLVQAGGSLRLSCADSGGIFNTYAMGWYRQAPGKEREFVAAISRRGGGTYYADSVKGRFTISRDNAKNTVYLQMNSLKPEDTAVYYCAAKRFHEHGYWGQGTQVTVSS | high polyreactivity
39 | QVQLVESGGGLVQAGGSLRLSCADSGGILFNYDMGWYRPAPGKERELVAAISRRGGTTYYADSVKGRFTISRDNAKNTVYLQMNSLKPEDTAVYYCAAYIYYSYYARVGYGDGNGYDYWGQGTQVTVSS | high polyreactivity
40 | QVQLVESGGGLVQAGGSLRLSCADSGITFDANTMGWYRQAPGKERELVAVITDTGSTNYADSVKGRFTISRDNAKNTVYLQMNSLKPEDTAVYYCNADAEPSSGTSANNDYWGQGTQVTVSS | low polyreactivity
41 | QVQLVESGGGLVQAGGSLRLSCADSGITLQSYAMGWYRQAPGKERELVAAITSGSSTHYADSVKGRFTISRYNAKYTVYLQMYSLKPEDTAVYYCAADRVYFGDLFVVYYFIQYDFWGQGTQVTVSS | low polyreactivity
42 | QVQLVESGGGLVQAGGSLRLSCADSGLIFTANDRGWYRQAPGKERELVADISKSGSSTYYADSVKGRFTISRDNAKNTVYLQMNSLKPEDTAVYYCNADYLTYFTTFDYWGQGTQVTVSS | low polyreactivity
43 | QVQLVESGGGLVQAGGSLRLSCADSGLTFGRNAMGWYRHAPGKERELVAAITFNGGSTYYADSVKGRFTISRDNAKNTVYLQMNSLKPEDTAVYYCSGRLWRRSRFDYWGQGTQVTVSS | high polyreactivity

From the nanobody polyreactivity screen of Harvey et al. (2022)
